Assay results published in publication PMC11061317 (Cell Research, 2024).
Ends that are not written are not given here.

B1: biotinylated synthetic peptide of the ATP6AP1 C-tail (12) (peptide)
peptide: HKGPTISLTQIV
modifications: also: biotinylated, position not given here
notes: the last 12 residues of ATP6AP1; also called C12; synthetic C12 peptide; source: synthetic peptide (Genscript ProBio)
B2: biotinylated synthetic peptide of the ATP6AP1 C-tail (30) (peptide)
peptide: TYGLHMILSLKTMDRFDDHKGPTISLTQIV
modifications: also: biotinylated, position not given here
notes: ATP6AP1 C-terminal 30 amino acids (C-tail), aa 441-470; also called synthetic C-tail peptide; WT C-tail peptide; source: synthetic peptide (Genscript ProBio)

Legend:
[1] = target: T1, bacterially purified GST-tagged Rheb (UniProt Q15382 1-184); experiment: pull-down; recombinant Rheb (1 ug) and biotinylated C-tail peptide at a 1:5 molar ratio in 300 uL NETN buffer (40 mM Tris-HCl, 100 mM NaCl, 0.5% NP-40, 1 mM EDTA, 10% glycerol) with 15 uL streptavidin beads, 2 h at 4 °C; SDS-PAGE and immunoblot; conditions: both partners purified
T1 construct: Rheb, small G protein; The real-time BODIPY assays written under functional used His-tagged Rheb from E. coli instead of the GST-tagged protein; also called GST-Rheb; recombinant GST-tagged WT Rheb; source: E. coli BL21 (DE3), purified (Glutathione Sepharose 4B); not shown: GST, N-terminal, kept
T1 sequence (Q15382 whole entry): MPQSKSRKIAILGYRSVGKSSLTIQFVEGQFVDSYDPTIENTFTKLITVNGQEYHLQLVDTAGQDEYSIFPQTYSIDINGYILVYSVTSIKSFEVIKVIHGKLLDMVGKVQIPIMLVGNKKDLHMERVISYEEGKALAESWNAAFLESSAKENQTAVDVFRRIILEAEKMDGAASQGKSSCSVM

[2] = target: T2, bacterially purified Rheb-G63V (UniProt Q15382 1-184, G63V); experiment: as above; conditions: both partners purified
T2 construct: source: E. coli BL21 (DE3), purified
T2 sequence (Q15382 whole entry G63V): as the sequence (Q15382 whole entry) above, with G63V counted along it

Binder | binding result [1] | binding result [2]
B1 | binds | –
B2 | binds | binds
